Legend:
[1] = biological target: T1, SARS-CoV S trimer (ectodomain) (SARS-CoV, UniProt P59594 14-1195); test: SPR
[2] = biological target: T1, SARS-CoV S trimer (ectodomain); test: SPR; remark: listed apart in the source

B1: COVA1-16 (antibody, V domains shown)
VH: QVQLVQSGAEVKKPGASVKVSCKASGYTFTSYYMHWVRQAPGQGLEWMGIINSSGGSTSYAQKFQGRVTMTRDTSTSTVYMELSSLRSEDTAVYYCARPPRNYYDRSGYYQRAEYFQHWGQGTLVTVSS
VL: DIQLTQSPSSLSASVGDRVTITCQASQDISNYLNWYQQRPGKAPKLLIYDASNLETGVPSRFSGSGSGTDFTFTISSLQPEDIATYYCQQYDNPPLTFGGGTKLEIK
koff [1]: 0.0032 s⁻¹ | Kd [2]: 19.5 nM
